Ends that are not written are not given here.

T1: Recombinant human MPL (human, UniProt P40238 26-491, limits assumed)
T1 construct: also called hu-mpl; hu-MPL
T1 sequence (looked up): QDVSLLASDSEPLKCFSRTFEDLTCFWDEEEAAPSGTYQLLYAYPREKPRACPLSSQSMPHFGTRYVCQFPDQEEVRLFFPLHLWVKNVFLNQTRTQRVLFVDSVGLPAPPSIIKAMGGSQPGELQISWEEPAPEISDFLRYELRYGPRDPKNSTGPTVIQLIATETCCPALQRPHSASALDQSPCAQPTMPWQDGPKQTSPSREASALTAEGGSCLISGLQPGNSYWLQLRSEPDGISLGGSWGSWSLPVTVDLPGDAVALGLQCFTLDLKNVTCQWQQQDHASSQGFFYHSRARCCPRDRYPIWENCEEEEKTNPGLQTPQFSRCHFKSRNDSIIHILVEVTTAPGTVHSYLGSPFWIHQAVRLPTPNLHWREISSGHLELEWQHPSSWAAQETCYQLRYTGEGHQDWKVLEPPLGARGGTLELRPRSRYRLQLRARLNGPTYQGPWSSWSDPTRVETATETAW

B1: TMP2 (22-residue capped peptide) (peptide)
peptide: QGGAREGPTLRQWLEWVRVGHS
notes: two-residue caps at each end; also called TMP02
B2: TMP4 (22-residue capped peptide) (peptide)
peptide: QGALRDGPTLKQWLEYRRQAHS
notes: two-residue caps at each end; also called TMP04
B3: TMP3 (22-residue capped peptide) (peptide)
peptide: QGRDLDGPTLRQWLPLPSVQHS
notes: two-residue caps at each end; also called TMP03

In this assay the target is T1, Recombinant human MPL. Description: phage ELISA titration: phagemid particles displaying the peptide, 5-fold dilution series (cfu/ul), on plate-coated recombinant human MPL, HRP-anti-M13 detection, chemiluminescent readout (Example 1, sections 4B and 5).
Consider QGWCKEGPTLREWLRWGFLCHS (not fully specified; cysteine pairing not given here, two-residue caps at each end; Two Cys) [TMP21 (22-residue capped peptide)], for which the “EC50 (read off the curve)” value is approximately 800000 cfu/ul.
B1: the “EC50 (read off the curve)” value is approximately 400000 cfu/ul.
As for B2, the figure is approximately 100000 cfu/ul; as for QGCSSGGPTLREWLQCRRMQHS (not fully specified; cysteine pairing not given here, two-residue caps at each end; Two Cys) [TMP22 (22-residue capped peptide)], approximately 200000 cfu/ul; as for B3, approximately 200000 cfu/ul.
Take QGCSWGGPTLKQWLQCVRAKHS (not fully specified; cysteine pairing not given here, two-residue caps at each end; Two Cys) [TMP23 (22-residue capped peptide)]: the “EC50 (read off the curve)” value was approximately 100000 cfu/ul.

The record behind these values is patent publication US20110229472A1 (Amgen, published 2011).
